# Reference: paper PMC10926643 (2024)
# T1: recombinant FGF12 fused with the His-tag (UniProt P61328 1-243)
# T1 chain: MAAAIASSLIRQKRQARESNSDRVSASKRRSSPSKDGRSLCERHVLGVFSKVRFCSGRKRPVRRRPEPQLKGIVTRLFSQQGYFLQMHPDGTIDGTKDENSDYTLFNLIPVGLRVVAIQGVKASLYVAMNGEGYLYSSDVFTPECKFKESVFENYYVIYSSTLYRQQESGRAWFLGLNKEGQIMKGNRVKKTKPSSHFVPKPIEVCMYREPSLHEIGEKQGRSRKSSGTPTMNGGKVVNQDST
# Target: T1, recombinant FGF12 fused with the His-tag
# Experiment: SPR
binder,measurement,value
recombinant galectin-8 (natural protein) MMLSLNNLQNIIYNPVIPFVGTIPDQLDPGTLIVIRGHVPSDADRFQVDLQNGSSMKPRADVAFHFNPRFKRAGCIVCNTLINEKWGREEITYDTPFKREKSFEIVIMVLKDKFQVAVNGKHTLLYGHRIGPEKIDTLGIYGKVNIHSIGFSFSSDLQSTQASSLELTEISRENVPKSGTPQLRLPFAARLNTPMGPGRTVVVKGEVNANAKSFNVDLLAGKSKDIALHLNPRLNIKAFVRNSFLQESWGEEERNITSFPFSPGMYFEMIIYCDVREFKVAVNGVHSLEYKHRFKELSSIDTLEINGDIHLLEVRSW,Kd,581 nM
